Substitutions are numbered along the chain they refer to. Numbers in names are those of the source.
T1: ErbB-4 receptor-Ig fusion (human, UniProt Q15303 26-651)
T1 construct: extracellular domain;range 224-C-terminus; also called ErbB-4-Ig; not shown: human IgG heavy chain constant region from His224 (hinge) on
T1 sequence: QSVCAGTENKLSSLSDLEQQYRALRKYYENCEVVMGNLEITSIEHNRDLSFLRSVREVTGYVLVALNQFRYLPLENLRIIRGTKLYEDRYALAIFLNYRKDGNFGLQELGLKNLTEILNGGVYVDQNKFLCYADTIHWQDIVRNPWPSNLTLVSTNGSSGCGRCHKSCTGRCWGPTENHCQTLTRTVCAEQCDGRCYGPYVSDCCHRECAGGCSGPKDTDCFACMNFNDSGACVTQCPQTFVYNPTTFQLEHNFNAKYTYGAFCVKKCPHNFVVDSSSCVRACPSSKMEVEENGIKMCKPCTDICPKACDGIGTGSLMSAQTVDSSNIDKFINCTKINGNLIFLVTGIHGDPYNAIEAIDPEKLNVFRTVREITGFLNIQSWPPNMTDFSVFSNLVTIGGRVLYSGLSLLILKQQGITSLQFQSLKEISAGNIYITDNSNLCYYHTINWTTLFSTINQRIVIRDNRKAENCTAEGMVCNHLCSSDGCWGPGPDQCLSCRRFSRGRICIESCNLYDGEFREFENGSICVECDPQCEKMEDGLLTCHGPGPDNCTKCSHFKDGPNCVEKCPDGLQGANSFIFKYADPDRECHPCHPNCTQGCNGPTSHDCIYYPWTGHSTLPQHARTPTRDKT

B1: HRG7: HRG-β1 177-228 displayed on phage, fused to pIII 247 (ligand, phage M13)
chain: SHLVKCAEKEKTFCVNGGECFMVKDLSNPSRYLCKCPNEFTGDRCQNYVMASGGSGGGSGSGDFDYEKMANANKGAMTENADENALQSDAKGKLDSVATDYGAAIDGFIGDVSGLANGNGATGDFAGSNSQMAQVGDGDNSPLMNNFRQYLPSLPQSVECRPFVFSAGKPYEFSIDCDKINLFRGVFAFLLYVATFMYVFSTFANILRNKES
notes: range 247-C-terminus
B2: TH-WT: thioredoxin fused at its C-terminus to wild-type HRG-β1 146-244 (ligand)
chain: DDDDKAYVSSESPIRISVSTEGANTSSSTSTSTTGTSHLVKCAEKEKTFCVNGGECFMVKDLSNPSRYLCKCPNEFTGDRCQNYVMASFYKHLGIEFMEAEELY
notes: also called Trx-wild-type HRG-β1; not shown: thioredoxin (Trx) from pTrxFus
B3: HRG4: HRG-β1 147-227 displayed on phage, fused to pIII 247 (ligand, phage M13)
chain: YVSSESPIRISVSTEGANTSSSTSTSTTGTSHLVKCAEKEKTFCVNGGECFMVKDLSNPSRYLCKCPNEFTGDRCQNYVMAGGSGGGSGSGDFDYEKMANANKGAMTENADENALQSDAKGKLDSVATDYGAAIDGFIGDVSGLANGNGATGDFAGSNSQMAQVGDGDNSPLMNNFRQYLPSLPQSVECRPFVFSAGKPYEFSIDCDKINLFRGVFAFLLYVATFMYVFSTFANILRNKES
notes: range 247-C-terminus; Monovalent phage display; also called pHRG4-g3
B4: recombinantly produced HRG-β1 177-244 (soluble) (ligand)
chain: SHLVKCAEKEKTFCVNGGECFMVKDLSNPSRYLCKCPNEFTGDRCQNYVMASFYKHLGIEFMEAEELY
B5: HRG-β1 177-244 Y224A on phage (ligand)
chain: B4 chain with Y48A
notes: not shown: M13 pIII C-terminal fragment (from pIII residue 247), the phage display partner
B6: HRG-β1 177-244 F229A on phage (ligand)
chain: B4 chain with F53A
notes: as for B5
B7: HRG-β1 177-244 V199A on phage (ligand)
chain: B4 chain with V23A
notes: not shown: M13 pIII fragment from residue 247 to the C-terminus (phage display carrier) and any cloning-site junction
B8: HRG-β1 177-244 E215A on phage (ligand)
chain: B4 chain with E39A
notes: as for B7
B9: HRG-β1 177-244 G194A on phage (ligand)
chain: B4 chain with G18A
notes: as for B5
B10: HRG-β1 177-244 T217A on phage (ligand)
chain: B4 chain with T41A
notes: as for B7
B11: HRG-β1 177-244 R207A on phage (ligand)
chain: B4 chain with R31A
notes: as for B7
B12: HRG-β1 177-244 H178A on phage (ligand)
chain: B4 chain with H2A
notes: as for B5
B13: HRG-β1 177-244 K200A on phage (ligand)
chain: B4 chain with K24A
notes: also called K2OO; not shown: M13 pIII fragment from residue 247 to the C-terminus (phage display carrier) and any cloning-site junction
B14: HRG-β1 177-244 N192A on phage (ligand)
chain: B4 chain with N16A
notes: as for B5
B15: HRG-β1 177-244 E195A on phage (ligand)
chain: B4 chain with E19A
notes: as for B5
B16: HRG-β1 177-244 K211A on phage (ligand)
chain: B4 chain with K35A
notes: as for B7
B17: HRG-β1 177-244 G193A on phage (ligand)
chain: B4 chain with G17A
notes: as for B5
B18: HRG-β1 177-244 S177A on phage (ligand)
chain: B4 chain with S1A
notes: as for B5
B19: HRG-β1 177-244 L179A on phage (ligand)
chain: B4 chain with L3A
notes: as for B5
B20: HRG-β1 177-244 P205A on phage (ligand)
chain: B4 chain with P29A
notes: as for B7
B21: HRG6: HRG-β1 177-227 displayed on phage, fused to pIII 247 (ligand, phage M13)
chain: SHLVKCAEKEKTFCVNGGECFMVKDLSNPSRYLCKCPNEFTGDRCQNYVMAGGSGGGSGSGDFDYEKMANANKGAMTENADENALQSDAKGKLDSVATDYGAAIDGFIGDVSGLANGNGATGDFAGSNSQMAQVGDGDNSPLMNNFRQYLPSLPQSVECRPFVFSAGKPYEFSIDCDKINLFRGVFAFLLYVATFMYVFSTFANILRNKES
notes: range 247-C-terminus; also called pHRG6-g3
B22: HRG5: HRG-β1 147-244 displayed on phage, fused to pIII 247 (ligand, phage M13)
chain: YVSSESPIRISVSTEGANTSSSTSTSTTGTSHLVKCAEKEKTFCVNGGECFMVKDLSNPSRYLCKCPNEFTGDRCQNYVMASFYKHLGIEFMEAEELYGGSGGGSGSGDFDYEKMANANKGAMTENADENALQSDAKGKLDSVATDYGAAIDGFIGDVSGLANGNGATGDFAGSNSQMAQVGDGDNSPLMNNFRQYLPSLPQSVECRPFVFSAGKPYEFSIDCDKINLFRGVFAFLLYVATFMYVFSTFANILRNKES
notes: range 247-C-terminus; Monovalent phage display; also called pHRG5-g3

What was measured:
[1] = target: T1, ErbB-4 receptor-Ig fusion; experiment: displacement of 125I-HRG-β1 177-244 from plate-bound ErbB-4-Ig
[2] = target: T2, ErbB-3 receptor-Ig fusion (human, UniProt P21860 20-643); experiment: displacement of 125I-HRG-β1 177-244 from plate-bound ErbB-3-Ig
T2 construct: extracellular domain;range 224-C-terminus; also called ErbB-3-Ig; 3/3 homodimer; not shown: human IgG heavy chain constant region from His224 (hinge) on
T2 sequence (P21860 other isoform, or with tags, fused parts or gaps): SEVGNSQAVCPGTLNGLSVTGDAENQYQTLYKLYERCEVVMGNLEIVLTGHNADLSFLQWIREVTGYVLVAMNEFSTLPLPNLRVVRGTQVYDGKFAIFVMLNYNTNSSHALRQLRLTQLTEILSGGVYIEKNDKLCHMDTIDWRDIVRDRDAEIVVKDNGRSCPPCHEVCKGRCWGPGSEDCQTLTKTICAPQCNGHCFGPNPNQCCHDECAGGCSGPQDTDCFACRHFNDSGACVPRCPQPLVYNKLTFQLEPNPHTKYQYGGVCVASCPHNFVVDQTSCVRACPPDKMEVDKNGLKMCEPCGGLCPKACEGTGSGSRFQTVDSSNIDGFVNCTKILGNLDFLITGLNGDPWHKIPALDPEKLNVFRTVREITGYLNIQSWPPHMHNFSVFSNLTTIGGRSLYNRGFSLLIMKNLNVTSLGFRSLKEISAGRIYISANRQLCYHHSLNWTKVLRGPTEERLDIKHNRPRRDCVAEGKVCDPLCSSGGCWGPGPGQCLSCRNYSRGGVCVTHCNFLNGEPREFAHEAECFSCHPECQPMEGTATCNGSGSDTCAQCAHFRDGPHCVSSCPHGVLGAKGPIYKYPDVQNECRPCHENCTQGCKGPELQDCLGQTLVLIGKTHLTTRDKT

[3] = target: T3, ErbB-2/3 receptor-Ig fusion (human, UniProt P04626 23-652; P21860 20-643); experiment: phage ELISA; soluble ErbB-2/3-Ig competes phage off plate-bound ErbB-2/3-Ig
T3 construct: extracellular domain;range 224-C-terminus; Co-expressed in HEK-293; also called ErbB-2/3-Ig; 2/3-heterodimer; not shown: human IgG heavy chain constant region from His224 (hinge) on

[4] = target: T2, ErbB-3 receptor-Ig fusion; experiment: phage ELISA; soluble ErbB-3-Ig as competitor
Procedure: (§1) Microtiter plates (Nunc Maxisorp™ 96-well plates, Inter Med, Denmark) for phage ELISA were prepared as follows. The wells were precoated overnight with 0.5 μg of rabbit anti-human IgG (Fc gamma fragment-specific) antibodies (Jackson Immunoresearch, West Grove, Pa.) in 100 μL 50 mM NaCO₃ (pH 9.6). The wells were blocked for 30 minutes (min) with 200 μL PBS containing 0.1% bovine serum albumin (BSA) and rinsed with wash buffer (PBS containing 0.05% Tween 20™). The wells were then coated with 0.1 μg ErbB-2/3-Ig in binding buffer (PBS, 0.1% BSA, 0.05% Tween 20™) for 1 h, and washed again.
(§2) Serial dilutions of soluble ErbB-2/3-Ig (competitor) and a concentration of phage predetermined to give 60% saturation (without competitor) were added to the wells in 100 μL binding buffer. Following incubation for 2 h at room temperature, plates were washed extensively and treated with a 1:900 dilution of anti-M13 horseradish peroxidase conjugate (Pharmacia, Piscataway, N.J.) for 20 min. The amount of phage binding was determined by assaying horseradish peroxidase activity using o-phenylenediamine dihydrochloride) substrate solution (Sigma Chemical Company, St. Louis, Mo.). EC₅₀ values were calculated as the concentration of soluble ErbB-2/3-Ig required to compete half of the phage off the plate.

[5] = target: T1, ErbB-4 receptor-Ig fusion; experiment: phage ELISA; soluble ErbB-4-Ig as competitor
Procedure: as §1, §2

Molecule	EC50 [1]	EC50 [2]	EC50 [5]	also measured
Trx-HRG-β1 146-244 V199A fusion (soluble) (from UniProt Q6DR98 147-244) (ligand)	246 nM			
Trx-HRG-β1 146-244 P205A fusion (soluble) (from UniProt Q6DR98 147-244) (ligand)	34.2 nM	39.5 nM		
Trx-HRG-β1 146-244 F189A fusion (soluble) (from UniProt Q6DR98 147-244) (ligand)	565 nM	975 nM		
Trx-HRG-β1 146-244 E195A fusion (soluble) (from UniProt Q6DR98 147-244) (ligand)	13.2 nM	42 nM		
Trx-HRG-β1 146-244 R207A fusion (soluble) (from UniProt Q6DR98 147-244) (ligand)	24.3 nM	245 nM		
Trx-HRG-β1 146-244 G193A fusion (soluble) (from UniProt Q6DR98 147-244) (ligand)	76.3 nM	26.9 nM		
Trx-HRG-β1 146-244 K200A fusion (soluble) (from UniProt Q6DR98 147-244) (ligand)	16.9 nM	45.4 nM		
Trx-HRG-β1 146-244 G218A fusion (soluble) (from UniProt Q6DR98 147-244) (ligand)	608 nM	668 nM		
Trx-HRG-β1 146-244 T217A fusion (soluble) (from UniProt Q6DR98 147-244) (ligand)	32.7 nM	145 nM		
Trx-HRG-β1 146-244 F229A fusion (soluble) (from UniProt Q6DR98 147-244) (ligand)	89.9 nM	177 nM		
Trx-HRG-β1 146-244 H178A fusion (soluble) (from UniProt Q6DR98 147-244) (ligand)	138 nM	476 nM		
Trx-HRG-β1 146-244 K211A fusion (soluble) (from UniProt Q6DR98 147-244) (ligand)	124 nM	248 nM		
Trx-HRG-β1 146-244 S177A fusion (soluble) (from UniProt Q6DR98 147-244) (ligand)	54.6 nM	129 nM		
Trx-HRG-β1 146-244 G194A fusion (soluble) (from UniProt Q6DR98 147-244) (ligand)	275 nM	1210 nM		
Trx-HRG-β1 146-244 N192A fusion (soluble) (from UniProt Q6DR98 147-244) (ligand)	696 nM	1640 nM		
Trx-HRG-β1 146-244 F216A fusion (soluble) (from UniProt Q6DR98 147-244) (ligand)	173 nM	2550 nM		
Trx-HRG-β1 146-244 L179A fusion (soluble) (from UniProt Q6DR98 147-244) (ligand)	51.7 nM	394 nM		
Trx-HRG-β1 146-244 E215A fusion (soluble) (from UniProt Q6DR98 147-244) (ligand)	104 nM	156 nM		
Trx-HRG-β1 146-244 Y224A fusion (soluble) (from UniProt Q6DR98 147-244) (ligand)	24.5 nM	339 nM		
B1				EC50 [3]: 42 nM
B2	15.4 nM	47.6 nM		

Molecule	EC50 [1]	EC50 [2]	EC50 [5]	also measured
B3				EC50 [3]: 38 nM
B4	14.8 nM	9 nM		
B5			51 nM	EC50 [4]: 865 nM
B6				EC50 [4]: 6 nM
B7			47 nM	EC50 [4]: 27 nM
B8			32 nM	EC50 [4]: 51 nM
B9			65 nM	EC50 [4]: 500 nM
B10			14.2 nM	
B11			30 nM	
B12			32 nM	
B13			25 nM	EC50 [4]: 20 nM
B14			188 nM	
B15			24 nM	
B16			59 nM	
B17			23 nM	
B18			83 nM	EC50 [4]: 67 nM
B19			56 nM	EC50 [4]: ~1000 nM
B20			8 nM	EC50 [4]: 22 nM
B21				EC50 [3]: 40 nM
B22				EC50 [3]: 4.7 nM

Source: US20060183194A1 (Genentech, published 2006)
